B1: murine MAdCAM-1 (receptor, UniProt Q61826 22-405, looked up)
chain: QSFQVNPPESEVAVAMGTSLQITCSMSCDEGVARVHWRGLDTSLGSVQTLPGSSILSVRGMLSDTGTPVCVGSCGSRSFQHSVKILVYAFPDQLVVSPEFLVPGQDQVVSCTAHNIWPADPNSLSFALLLGEQRLEGAQALEPEQEEEIQEAEGTPLFRMTQRWRLPSLGTPAPPALHCQVTMQLPKLVLTHRKEIPVLQSQTSPKPPNTTSAEPYILTSSSTAEAVSTGLNITTLPSAPPYPKLSPRTLSSEGPCRPKIHQDLEAGWELLCEASCGPGVTVRWTLAPGDLATYHKREAGAQAWLSVLPPGPMVEGWFQCRQDPGGEVTNLYVPGQVTPNSSSTVVLWIGSLVLGLLALVFLAYRLWKCYRPGPRPDTSSCTHL
notes: whole, on cells; CHO cells transfected with murine MAdCAM-1; also called mucosal addressin cell adhesion molecule

Experiments:
[1] = target: human CCR4 (human) (UniProt P51679); experiment: cell-based or functional assay
human CCR4 (human), sequence (P51679 whole entry): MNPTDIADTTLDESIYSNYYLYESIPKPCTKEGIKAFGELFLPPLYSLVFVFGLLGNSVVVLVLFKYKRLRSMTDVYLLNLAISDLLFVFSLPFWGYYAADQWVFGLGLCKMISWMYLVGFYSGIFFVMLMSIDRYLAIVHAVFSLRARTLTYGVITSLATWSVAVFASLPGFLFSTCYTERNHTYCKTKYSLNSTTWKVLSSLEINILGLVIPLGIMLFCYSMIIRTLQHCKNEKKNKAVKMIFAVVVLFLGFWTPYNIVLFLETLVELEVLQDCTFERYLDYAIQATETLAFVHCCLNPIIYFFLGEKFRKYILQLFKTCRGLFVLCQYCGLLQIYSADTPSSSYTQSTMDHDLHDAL

[2] = target: T1, integrin α4β7 (human, UniProt P13612 34-1032; P26010 20-798); experiment: cell adhesion to MAdCAM-1 transfectants, elution with 0.5mM EDTA
T1 construct: whole, on cells; also called a4p7
T1 sequence (P13612 34-1032, chain 1 of 2): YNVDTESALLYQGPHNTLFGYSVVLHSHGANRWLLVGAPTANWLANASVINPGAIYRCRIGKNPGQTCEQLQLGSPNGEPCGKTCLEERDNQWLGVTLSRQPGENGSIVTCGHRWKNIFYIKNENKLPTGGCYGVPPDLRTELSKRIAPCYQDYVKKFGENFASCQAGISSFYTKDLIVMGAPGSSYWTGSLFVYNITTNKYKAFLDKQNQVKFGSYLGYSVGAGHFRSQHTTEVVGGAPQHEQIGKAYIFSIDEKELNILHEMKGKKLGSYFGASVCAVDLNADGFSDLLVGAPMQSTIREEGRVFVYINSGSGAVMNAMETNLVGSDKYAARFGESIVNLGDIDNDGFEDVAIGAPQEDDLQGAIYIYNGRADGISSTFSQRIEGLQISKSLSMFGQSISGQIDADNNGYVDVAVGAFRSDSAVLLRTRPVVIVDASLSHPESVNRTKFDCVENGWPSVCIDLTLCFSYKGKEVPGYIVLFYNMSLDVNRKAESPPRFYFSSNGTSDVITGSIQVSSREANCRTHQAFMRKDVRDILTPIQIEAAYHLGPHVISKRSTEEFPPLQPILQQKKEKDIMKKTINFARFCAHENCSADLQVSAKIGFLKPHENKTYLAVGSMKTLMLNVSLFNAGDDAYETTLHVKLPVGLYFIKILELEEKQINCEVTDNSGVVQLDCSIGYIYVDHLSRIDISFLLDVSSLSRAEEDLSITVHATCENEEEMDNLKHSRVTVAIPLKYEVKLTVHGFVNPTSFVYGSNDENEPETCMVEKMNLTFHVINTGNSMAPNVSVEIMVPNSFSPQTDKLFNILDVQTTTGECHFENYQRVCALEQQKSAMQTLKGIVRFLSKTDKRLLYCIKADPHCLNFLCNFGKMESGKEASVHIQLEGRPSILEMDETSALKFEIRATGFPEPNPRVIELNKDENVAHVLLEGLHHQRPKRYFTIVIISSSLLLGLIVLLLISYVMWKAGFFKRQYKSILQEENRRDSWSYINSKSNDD
T1 sequence (P26010 20-798, chain 2 of 2): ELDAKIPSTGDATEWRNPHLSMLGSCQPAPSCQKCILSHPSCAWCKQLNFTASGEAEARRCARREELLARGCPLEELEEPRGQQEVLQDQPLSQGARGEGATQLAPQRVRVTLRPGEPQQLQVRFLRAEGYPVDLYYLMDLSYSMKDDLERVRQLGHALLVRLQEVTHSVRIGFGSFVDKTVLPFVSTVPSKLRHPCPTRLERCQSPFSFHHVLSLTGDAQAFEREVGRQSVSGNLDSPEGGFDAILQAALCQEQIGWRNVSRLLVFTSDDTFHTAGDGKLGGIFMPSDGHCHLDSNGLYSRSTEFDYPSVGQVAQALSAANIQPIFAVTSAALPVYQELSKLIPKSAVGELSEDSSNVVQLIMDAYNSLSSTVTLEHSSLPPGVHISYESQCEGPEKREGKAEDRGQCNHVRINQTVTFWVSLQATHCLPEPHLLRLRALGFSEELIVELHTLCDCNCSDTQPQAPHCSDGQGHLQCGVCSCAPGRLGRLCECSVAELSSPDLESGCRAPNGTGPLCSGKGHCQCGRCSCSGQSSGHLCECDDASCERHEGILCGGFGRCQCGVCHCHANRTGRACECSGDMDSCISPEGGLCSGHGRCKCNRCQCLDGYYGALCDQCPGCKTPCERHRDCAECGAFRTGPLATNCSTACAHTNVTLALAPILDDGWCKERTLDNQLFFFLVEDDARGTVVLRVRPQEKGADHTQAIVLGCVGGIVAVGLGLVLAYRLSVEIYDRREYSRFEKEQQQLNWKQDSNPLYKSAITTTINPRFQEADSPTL

Row | Molecule | rapid adhesion of α4β7(-) memory CD4+ lymphocytes to immobilized ICAM-1 (static assay, TARC at 1 µM) (% of input cells) [1] | binding result [2]
1 | human TARC (thymus and activation-regulated chemokine) (from UniProt Q92583 24-94) (ligand) | < 50 | 
2 | B1 |  | binds

Source: US20020019341A1 (Stanford University, published 2002)
